Data on 47 molecules can be found in patent US7056679 (ANTYRA, dated 2006).

No end group written: not given here.

The labels stand for the following.
T1: DGI-2 (UniProt Q15004 1-111, limits assumed)
T1 construct: Soluble recombinant DGI-2 made by in vitro translation (RTS, pIVEX2.3-MCS vector) and coated on plates for the ELISA; vector tag not described; also called KIAA0101; DGI-2 polypeptide
T1 sequence (looked up): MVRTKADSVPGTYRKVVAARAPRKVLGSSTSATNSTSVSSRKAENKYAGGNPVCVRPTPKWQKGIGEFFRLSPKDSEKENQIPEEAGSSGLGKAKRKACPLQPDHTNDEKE

For this assay, the target named is T1, DGI-2. Kind of assay: phage ELISA, coated DGI-2. On the procedure: For analysis of individual target binders, colonies were picked and phage prepared as described above using helper phage, M13KO7. Ninety-six-well microtiter plates were coated with 500 ng/well of specific target protein, 500 ng/well lactate dehydrogenase (LDH) irrelevant or non-specific target, 500 ng/well of positive control antibody raised against ETAG, and negative control of non-fat milk powder-PBS 2% at 4° C. overnight. Plates were then blocked with 350 microliters/well PBS containing 2% non-fat milk for 1 hr at room temperature. One hundred microliters per well of phage from isolated clones were added and plates were incubated at room temperature for 2 hr after centrifuging samples for 20 minutes at 3500 rpm at 4° C. The phage solution was then removed, and the wells were washed three times with PBS at room temperature. Antibody raised against M13 conjugated to horseradish peroxidase (Pharmacia) was diluted 1:3000 in PBS-Tween and added to each well (100 µl/well). Incubation was for 1 hr at room temperature, followed by washing with PBS-(0.5%) Tween 3 times as described. Color was developed by addition of ABTS solution (100 µl/well; Boehringer, Indianapolis, Ind.). Plates were analyzed at 405 nm. A clone was considered "positive" if the $A405$ of the well was $\geq$2-fold over background.
A general note: ELISA stands for enzyme-linked immunosorbent assay.
As for CRNFGVIWGAGWVSPGCEDI (not fully specified, on M13 phage, pIII fusion with E-tag) [DGI-2-20E-3-A1], the binding result is reported as “binds”.
For GSVLERGCLEFSGFCFSLGH (on M13 phage, pIII fusion with E-tag) [DGI-2-20F-3-C1], the binding result is listed as “binds”.
On to GGGRESWGGGWFMGWGSGAG (on M13 phage, pIII fusion with E-tag) [DGI-2-20R-3-A6], for which the binding result is listed as “binds”.
YGTAGLFLRRACTMSDPGDPLGRRGYTGWGVLWDEWVTGS (on M13 phage, pIII fusion with E-tag) [DGI-2-40F-3-C8]: the binding result is recorded as “binds”.
To MSSTAWTDRILQRGIGLGPV (on M13 phage, pIII fusion with E-tag) [DGI-2-20R-4-F1212] belongs “binds”.
For the molecule VVRQGCMAFSGLCSGVTESE (not fully specified; cysteine pairing not given here, on M13 phage, pIII fusion with E-tag) [DGI-2-20R-3-C8], the binding result is given as “binds”.
As for MSTLQGPGHLFQMLRRASLG (on M13 phage, pIII fusion with E-tag) [DGI-2-20R-4-H12], the binding result is “binds”.
The value for GWGCSVPGILCVGGHRQGGG (not fully specified; cysteine pairing not given here, on M13 phage, pIII fusion with E-tag) [DGI-2-20R-3-B11] was “binds”.
As to EVFVSVWVFRFRVMPVTPGGT (on M13 phage, pIII fusion with E-tag) [DGI-2-20F-PP-E6], the binding result is given as “binds”.
Turning to SRPGWCSRGTAWGFPGCSSS (not fully specified (bridges); cysteine pairing not given here, on M13 phage, pIII fusion with E-tag) [DGI-2-20R-3-C4], the binding result was “binds”.
The value for DRSRAPLCADKSGRWQRYRR (on M13 phage, pIII fusion with E-tag) [DGI-2-20F-PP-C10] was “binds”; that for MGVVLECEGGWSIPGQTCYF (not fully specified; cysteine pairing not given here, on M13 phage, pIII fusion with E-tag) [DGI-2-20R-3-C7] was “binds”; that for VLQRSLWKDWVDGVMHGGGSRGV (on M13 phage, pIII fusion with E-tag) [DGI-2-20R-3-A7] was “binds”.
Take GSTRLRVTVRFCSETGTPGC (not fully specified; cysteine pairing not given here, on M13 phage, pIII fusion with E-tag) [DGI-2-20F-PP-G6]: the binding result was “binds”.
The value for LSHPMSPLRAASQMALTQGV (on M13 phage, pIII fusion with E-tag) [DGI-2-20R-4-H7] was “binds”; that for LHFGSVMGWRPPGSLWSRPFGQVHPRSWSGS (on M13 phage, pIII fusion with E-tag) [DGI-2-40F-3-D11] was “binds”; that for RWSICRGLQYSIPGCAVEDLSDVMA (on M13 phage, pIII fusion with E-tag) [DGI-2-20C-4-H316] was “binds”.
Turning to DAGIGWVGSMWFPPGCIGAC (not fully specified (bridges); cysteine pairing not given here, on M13 phage, pIII fusion with E-tag) [DGI-2-20R-4-E82], the binding result is listed as “binds”.
The value for GNKCFPPHDLFWDPCDQLQS (not fully specified (bridges); cysteine pairing not given here, on M13 phage, pIII fusion with E-tag) [DGI-2-20R-4-F6] was “binds”; that for SWRLWVSGELQGDRRKGLRG (on M13 phage, pIII fusion with E-tag) [DGI-2-20R-3-B7] was “binds”.
In the case of YTPASILTGFQRGYEGAGNG (on M13 phage, pIII fusion with E-tag) [DGI-2-20R-4-G7], the binding result was “binds”.
The value for SLSLYWDAQVGCEVFWGYCV (not fully specified; cysteine pairing not given here, on M13 phage, pIII fusion with E-tag) [DGI-2-20R-3-C10] was “binds”.
Consider RVSYEMLGRRRRSMHGSSMR (on M13 phage, pIII fusion with E-tag) [DGI-2-20F-PP-A4], for which the binding result is on record as “binds”.
The value for LPQSRWLSEAWASWVDGVVD (on M13 phage, pIII fusion with E-tag) [DGI-2-20F-4-F9] was “binds”; that for SIILAGCVWVMPCGQNLGGV (not fully specified (bridges); cysteine pairing not given here, on M13 phage, pIII fusion with E-tag) [DGI-2-20F-PP-C4] was “binds”; that for SSVWATWGSDLRTFGSVGFL (on M13 phage, pIII fusion with E-tag) [DGI-2-20F-PP-C7] was “binds”.
With TVKFQGVVQERSRIAGFRYCGDHAVSWGLAGCPALRDKLQ (on M13 phage, pIII fusion with E-tag) [DGI-2-40F-3-C424], the binding result is on record as “binds”.
Turning to TANGHRYGGCGLWCKWMSGM (not fully specified; cysteine pairing not given here, on M13 phage, pIII fusion with E-tag) [DGI-2-20R-4-E2], the binding result is given as “binds”.
For GLEPVPFQTDKRIAMGWTREWLVNGYGAAHRRDARMQSGH (on M13 phage, pIII fusion with E-tag) [DGI-2-40F-3-D6], the binding result was “binds”.
In the case of LTPYSLARSWLSGRPSTGAT (on M13 phage, pIII fusion with E-tag) [DGI-2-20F-3-C12], the binding result is “binds”.
Consider SYRNFAMQSSLQVRRGSVVEDGTCWWEGVRCYSG (on M13 phage, pIII fusion with E-tag) [DGI-2-40F-4-F6], for which the binding result is “binds”.
Consider TSCQVMFLAGQHLLSRVPRL (on M13 phage, pIII fusion with E-tag) [DGL-2-20R-3-B6], for which the binding result is given as “binds”.
The value for ACSVGTALVFPQRWWYLGRS (on M13 phage, pIII fusion with E-tag) [DGL-2-20R-3-D6] was “binds”; that for LGRTFVWGTCLHLSVSRFGH (on M13 phage, pIII fusion with E-tag) [DGI-2-20F-PP-C3] was “binds”; that for QGSAHVVRPPGVYDVPWKVGMFFHPQNWPNSWGRAYFRSG (on M13 phage, pIII fusion with E-tag) [DGI-2-40F-3-D12] was “binds”.
As for VHSQGRMWAIPGLRGGTGAS (on M13 phage, pIII fusion with E-tag) [DGI-2-20R-3-D7], the binding result is reported as “binds”.
In the case of SLFERSARSRYHGSPDCNGS (on M13 phage, pIII fusion with E-tag) [DGI-2-20F-PP-A3], the binding result is “binds”.
The value for RFWSVSYQGGRVMCREWGYCLPI (not fully specified (bridges); cysteine pairing not given here, on M13 phage, pIII fusion with E-tag) [DGI-2-40F-3-C92] was “binds”; that for MFQDVACDLWHSVRCLRRDV (not fully specified (bridges); cysteine pairing not given here, on M13 phage, pIII fusion with E-tag) [DGI-2-20R-3-B3] was “binds”; that for DGKHLTKWSGRGWWSAWVGG (on M13 phage, pIII fusion with E-tag) [DGI-2-20R-3-B12] was “binds”.
Consider VRAVYSRDAYNEVGRWMRVGI (on M13 phage, pIII fusion with E-tag) [DGI-2-20F-PP-D9], for which the binding result is “binds”.
With GLRACDTYLGFCVGARRIDD (on M13 phage, pIII fusion with E-tag) [DGI-2-20F-3-B102], the binding result is “binds”.
Regarding RNWLDKDCVWMGDCGARAGE (on M13 phage, pIII fusion with E-tag) [DGI-2-20F-4-E3], the binding result is on record as “binds”.
Consider RPVVCLAGLTLAQFGWVFPGWRGWS (on M13 phage, pIII fusion with E-tag) [DGI-2-20C-3-C1039], for which the binding result is listed as “binds”.
Regarding ALRSLGSGGFGWQAGRASPQGMTHFPYFGWSGMPTARVRP (on M13 phage, pIII fusion with E-tag) [DGI-2-40F-3-D7], the binding result is recorded as “binds”.
Take REFFNQASRGAWGYMFREWVEG (on M13 phage, pIII fusion with E-tag) [DGI-2-40F-3-A1]: the binding result was “binds”.
Regarding LSLLSVVVRSMGASAPQRQV (on M13 phage, pIII fusion with E-tag) [DGI-2-20F-3-A7], the binding result is recorded as “binds”.
